“And” between values parts separate entries of the source, which are not always exact repeats. Equal values may be shown once.
Assays:
Format in all cases: cell-based, human
[1] = test system: claudin-1 transcripts; experiment: qPCR of claudin-1 transcripts in PHK transfected with claudin-1 siRNA; conditions: siRNA 100 nM, 2^-ΔΔCt, GAPDH normalised, listed as Cldn1 siRNA
Procedure: QPCR was performed using the iScript™ cDNA Synthesis kit and iQ™ SYBER Green Supermix assay system (Bio-Rad Laboratories). All PCR amplifications were carried out in triplicate on an iQ5 Multicolor real-time PCR detection system (Bio-Rad). Primers were designed and synthesized by Integrated
DNA Technologies (Table 1). Relative gene expression was calculated by using the 2^−ΔΔCt method. Livak and Schmittgen, “Analysis of Relative Gene Expression Data Using Real-Time Quantitative PCR and the 2(-Delta Delta C(T)) Method,” Methods 25:402-8 (2001), which is hereby incorporated by reference in its entirety. The normalized Ct value of each sample was calculated using GAPDH as an endogenous control gene.
PHK were plated on glass coverslips at 2-3×10^5 cells/well in a 6-well plate or at 2-3×10^4 cells/filter in Transwell insert (Costar; PET membrane, 0.4 μm pore size, 6.5 mm insert) in Keratinocyte-SFM without antibiotics. […]
siRNA approach was used to selectively downregulate claudin-1 in primary human keratinocytes (PHK). […] Relative gene expressions were calculated by using the 2^−ΔΔCt method, in which Ct indicates cycle threshold, the fractional cycle number where the fluorescent signal reaches detection threshold. The normalized Ct value of each sample was calculated using GAPDH as endogenous control gene. […]

[2] = test system: HSV-1 strain F; experiment: HSV-1 fluorescent-focus assay in siRNA transfected PHK; conditions: siRNA 100 nM
Procedure: (§1) Infection studies were performed using the highly virulent HSV-1 strain F (provided by Dr. D.C. Johnson). Twenty-four to 48 h post-transfection with 100 nM claudin-1 or control siRNA, the cells were differentiated in DMEM with 10% heat-inactivated FBS for 24 h. Cells were washed twice with HBSS and infected with HSV-1 strain F at a multiplicity of infection (MOI) of 0.1 in DMEM containing 1% heat-inactivated FBS at 37° C., with rocking every 15 min. After 2 h, the viral inoculum was removed, and the cells were washed 2× with HBSS and incubated in DMEM containing 5% HI-FBS and 0.4% human-γ-globulin (Sigma; final concentration 0.5 mg/ml) for 24 hr to neutralize any extracellular virus.
HSV-infected PHK were washed 2× with PBS and fixed in 4% formaldehyde/PBS for 20 min at room temperature. A polyclonal rabbit anti-HSV-1 (Dako) antibody diluted 1:500 in PBS/1% BSA was placed on the PHK for 1 h at 37° C. followed by Alexa Fluor 488 donkey-anti-rabbit IgG H+L (1:1000, Molecular Probes) and 4′,6-diamidino-2-phenyl-indole, dihydrochloride (DAPI) (1:10,000, Molecular Probes). Coverslips were mounted onto slides with SlowFade (Molecular Probes). […] Images were stored in Portable Network Graphics (PNG) format and analyzed computationally to objectively quantify differences in focal forming units (FFU). […] Cell density was calculated by counting the number of DAPI labeled nuclei, assigned to the blue channel. Images were analyzed using MATLAB to enumerate FFU, and total cell number. […]
The MOI was chosen based on findings from viral titration (0.01 to 10 MOI) studies on differentiated and undifferentiated PHK, respectively, used as negative and positive controls. […] For each sample, six random fields were captured at identical acquisition settings and analyzed computationally to objectively quantify differences in focal forming units (FFU). […] An average of 4.8±0.7 FFU/field were counted in CLDN1 knockdown PHK, while only 2.5±0.5 FFU/field were detected in the control cells (P=0.05; n=6; FIG. 15C). Adapted Fluorospot software was used to semi-quantify differences in dimensions of each FFU. […]

[3] = test system: HSV-1 strain F; experiment: Infectious center assay (HSV-1 infected PHK on Vero cells); conditions: siRNA 100 nM, 24 h post-infection, n=3
Procedure: as §1
Twenty-four hours post-infection, PHK were treated with 0.05% Trypsin—EDTA (Invitrogen/Gibco) for 5 min at 37° C. followed by gently scraping to lift the cells, washed 3 times in DMEM containing 1% HI-FBS, and vortexed for 30 sec to disrupt cell clumps. Alive cells were counted using Trypan blue exclusion and scalar PHK dilutions (1000 to 1 cells in 1 ml of media) were plated onto pre-grown monolayers of Vero cells in six well plates. After 2 h, 1 ml of DMEM containing 5% HI-FBS and 0.4% human-γ-globulin (Sigma; final concentration 0.5 mg/ml) was added to each well. […] Plaques were counted by 2 independent investigators and results expressed as percent of infected PHK.

B1: CLDN1 siRNA: claudin-1 siRNA (h), Santa Cruz; a pool of 3 separate strands, SEQ ID NO: 10-15 (nucleic acid)
chain 1: UACAUAGGCAUAGUUCAUGNN
chain 2: CAUGAACUAUGCCUAUGUANN
chain 3: AACGUAUGCAGUUAAUUCCNN
chain 4: GGAAUUAACUGCAUACGUUNN
chain 5: UGAAGAUCUAUGUAUGUGGNN
chain 6: CCACAUACAUAGAUCUUCANN
modifications: chemistry not given here
B1 was tested, and the “claudin-1 transcripts, fold of control transfected cells” value [1] was 0.5%±0.06 fold, the “HSV-1 focal forming units” value ([2]; HSV-1 MOI 0.1, 24 h, n=6) was 4.8±0.7 FFU/field and the FFU area ([2]; HSV-1 MOI 0.1, n=6) was 15649±4367 pixels. The “diameter of the major axis of FFU” value ([2]; HSV-1 MOI 0.1, n=6) was 207±22 μm and 207±21 μm and the “PHK infected with HSV-1” value [3] was 38±6% and 38±6.43%.

Reference: patent publication US20130046257A1, “METHODS OF USING AGENTS THAT MODULATE CLAUDIN EXPRESSION” (priority 2010, published 2013)
